Target: cyno EpCAM (cyno)
Experiment: assay not stated; drawn table, heading 'Binding Affinity (nM)', column 'Cyno'

cyno EpCAM (cyno), sequence (Q1WER1 24-265): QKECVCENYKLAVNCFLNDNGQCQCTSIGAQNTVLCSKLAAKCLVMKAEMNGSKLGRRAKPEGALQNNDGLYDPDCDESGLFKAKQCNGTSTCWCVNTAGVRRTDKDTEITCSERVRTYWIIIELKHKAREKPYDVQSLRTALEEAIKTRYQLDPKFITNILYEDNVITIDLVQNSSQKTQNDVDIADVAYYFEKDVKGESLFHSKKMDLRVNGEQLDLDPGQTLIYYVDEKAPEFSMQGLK

B1: hVIB-23 (VHH)
VHH: QVQLVESGGGLVQPGGSLTLSCVISGSFSALWAMRWYRQAPGQQRELVASSRGGTTSYADSVKGRFTISRDNSKNTLYLQMNSLRPEDTAVYYCNAIDGHLAYWGQGTLVTVSS
Kd: 51.8 nM
